Experimental data reported in patent US20240116984A1, “MODIFIED PEPTIDES FOR THE INHIBITION OF ABNORMAL TAU ACCUMULATION” (University of Notre Dame du Lac, priority 2021, published 2024).

Target: tau-RD (P301L/V337M)-YFP, stably expressed in HEK293 biosensor cells (UniProt P10636)
Test: cell-based or functional assay

Sequence of tau-RD (P301L/V337M)-YFP, stably expressed in HEK293 biosensor cells (P10636 561-689 P618L/V654M): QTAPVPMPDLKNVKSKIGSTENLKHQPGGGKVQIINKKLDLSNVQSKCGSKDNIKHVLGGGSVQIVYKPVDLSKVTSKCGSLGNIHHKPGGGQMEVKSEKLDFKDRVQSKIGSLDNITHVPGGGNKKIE

aggregate-containing HEK293 biosensor cells (punctate fluorescence after 48 h) on treatment with preformed heparin-induced tauP301L fibrils: 38%
Substance: Human tauP301L (0N4R), recombinant, N-terminal His tag (from UniProt P10636 2-758)
